{"source": "paper PMC3999930", "about": "“Characterization of a SAM-dependent fluorinase from a latent biosynthetic pathway for fluoroacetate and 4-fluorothreonine formation in Nocardia brasiliensis” (F1000Research, 2014)", "proteins": {"B1": {"name": "NobA, SAM-dependent fluorinase (5'-fluoro-5'-deoxyadenosine synthase) from Nocardia brasiliensis ATCC 700358 (enzyme, UniProt W8JNL4 1-300, looked up)", "chain": "MTTTNGRRPIIAFMSDLGITDDSVAQCKGLMLSVCPDVTIVDICHTMQPWDVEEGARYIVDLPRLFPEGTVFATTTYPATGTTARSVALRIAHASKGGARGQWAGSGAGFERKEGSYIYIAPNNGLLTTVIKEHGYLEAYEVSSPEVIPEQPEPTFYSREMVALPSAHLAAGFPLEKVGRRLADDEIVRFERKDPELVADHDLVGYVTNIDHPFGNVWTNIHRTDLEKLGVGYGTKLRITLDGVLPFELPLSPTFADAGEIGAAVAYLSSRGYLALARNAASLAYPYNLKAGISVQVKVG", "notes": "NobA, fluorinase of Nocardia brasiliensis ATCC 700358 (HUJEG-1); NdeI-HindIII fragment in pET28a; no removal of the His tag is described; also called 5'-FDA synthase; source: E. coli BL21 (DE3), purified (Ni-NTA, dialysis)"}}, "molecular_target": "the molecule itself", "assay": "SEC; Superdex 200 GL, 50 mM phosphate buffer pH 7.8, 1 ml/min; native mass estimated from a calibration curve of standard proteins (29-669 kDa)", "data": [{"protein": "B1", "values": [{"measurement": "stoichiometry N", "result": 6}]}]}
